For assay [1], the target named is T1, recombinant secretory human HB-EGF manufactured by R & D System (catalogue number 259-HE/CF) (human, UniProt Q99075 63-148).
T1 construct: also called recombinant human HB-EGF; secretory HB-EGF
As to the kind of experiment: SPR (BIACORE T100), HB-EGF immobilized, antibody in flow. How it is done: (§1) In order to analyze binding activities of a mouse antibody KM3566 and the chimeric antibody KM3966 for human HB-EGF in reaction kinetics, the binding activity measurement was carried out using Biacore. All of the following operations were carried out using Biacore T-100 (manufactured by Biacore). Human HB-EGF (manufactured by R & D) prepared into 5 μg/ml using HBS-EP Buffer (manufactured by Biacore) was immobilized onto a CM 5 sensor chip (manufactured by Biacore) to a level of 80 RU (resonance unit) by an amine coupling method. Thereafter, each antibody diluted 5-fold from 9 nmol/l was let flow on the chip at a rate of 10 μl/min, and by analyzing the sensor-gram at each concentration, the association rate constant and dissociation rate constant of each antibody for human HB-EGF were calculated.
In order to reaction-kinetically analyze binding activity of the anti-HB-EGF humanized antibodies for human HB-EGF, it was measured in the same manner as in Example 7(2) using BIACORE T100 (manufactured by BIACORE).
As a result, human HB-EGF binding activity of the anti-HB-EGF humanized antibody HV0LV0 in which the CDRs of anti-HB-EGF chimeric antibody KM3966 were simply transplanted into human framework was reduced close to about ½ of that of the anti-HB-EGF chimeric antibody KM3966, but the binding activity of the anti-HB-EGF humanized antibody HV7LV0 in which amino acid modification was added to the H chain alone and the anti-HB-EGF humanized antibody HV7LV5 in which amino acid modification was added to the H chain and L chain was increased to almost the same level of the anti-HB-EGF chimeric antibody KM3966.
For orientation: Surface plasmon resonance follows binding to a sensor surface in real time, without labels.

Assay [2] concerns the target T1, recombinant secretory human HB-EGF …. As to the kind of experiment: SPR (BIACORE T100), HB-EGF immobilized. How it is done: as §1
In order to reaction-kinetically analyze binding activity of the anti-HB-EGF humanized antibodies for human HB-EGF, it was measured in the same manner as in Example 7(2) using BIACORE T100 (manufactured by BIACORE). […]

For assay [3], the target named is bovine serum albumin (BSA) (bovine, UniProt P02769 25-607). The assay can be described thus: binding ELISA. On the technique in general: ELISA stands for enzyme-linked immunosorbent assay.
Assay [4] concerns the target T1, recombinant secretory human HB-EGF …. The assay can be described thus: SPR (Biacore T-100), HB-EGF immobilized on CM5 chip, antibody in flow. How it is done: as §1
It was confirmed based on the results that both antibodies almost the same binding activity for human HB-EGF.

The next assay has as its target T2, mouse HB-EGF (mouse, UniProt Q06186 63-148, limits assumed).
T2 sequence (looked up): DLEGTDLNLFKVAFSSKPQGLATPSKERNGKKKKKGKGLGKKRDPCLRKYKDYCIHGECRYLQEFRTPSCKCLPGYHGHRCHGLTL
The assay can be described thus: not described.

T1 sequence (Q99075 63-148 limits assumed): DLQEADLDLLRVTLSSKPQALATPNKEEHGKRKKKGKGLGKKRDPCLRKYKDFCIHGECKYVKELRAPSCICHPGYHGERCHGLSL
Sequence of bovine serum albumin (BSA) (P02769 25-607 limits assumed): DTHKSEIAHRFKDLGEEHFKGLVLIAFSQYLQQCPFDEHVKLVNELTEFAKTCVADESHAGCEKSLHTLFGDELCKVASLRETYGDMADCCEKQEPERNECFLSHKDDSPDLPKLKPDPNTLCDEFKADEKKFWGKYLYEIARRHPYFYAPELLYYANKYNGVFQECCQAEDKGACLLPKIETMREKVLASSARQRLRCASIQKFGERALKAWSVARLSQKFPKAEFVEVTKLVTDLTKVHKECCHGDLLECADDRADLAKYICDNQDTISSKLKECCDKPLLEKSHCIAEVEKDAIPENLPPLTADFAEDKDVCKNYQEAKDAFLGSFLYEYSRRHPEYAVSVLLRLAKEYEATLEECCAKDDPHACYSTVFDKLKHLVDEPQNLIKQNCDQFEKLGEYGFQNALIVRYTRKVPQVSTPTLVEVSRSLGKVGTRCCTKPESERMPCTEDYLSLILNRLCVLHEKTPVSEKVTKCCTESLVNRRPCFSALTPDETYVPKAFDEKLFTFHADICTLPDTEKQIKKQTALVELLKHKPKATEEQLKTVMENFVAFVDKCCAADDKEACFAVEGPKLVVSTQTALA

B1: anti-HB-EGF humanized antibody HV7LV0 (antibody, V domains shown)
VH: QVQLVQSGAEVKKPGASVKLSCKASGYTFRTYGITWVRQAPGQGLEWIGEIFPGSGNTYYNEKFKGRATLTADKSTSTAYMELSSLRSEDTAVYFCARESFSDGYYGYFDYWGQGTLLTVSS
VL: DIVMTQSPDSLAVSLGERATINCKSSQSLLYSTNQKNSLAWYQQKPGQPPKLLIYWASTRESGVPDRFSGSGSGTDFTLTISSLQAEDVAVYYCQQYYRYPLTFGQGTKLEIK
notes: Whole humanized antibody from pKANTEX93
Turning to B1, the kon in assay [1] was determined as 174000 M⁻¹ s⁻¹.

B2: anti-HB-EGF humanized antibody HV0LV0 (antibody, V domains shown)
VH: QVQLVQSGAEVKKPGASVKVSCKASGYTFTTYGITWVRQAPGQGLEWMGEIFPGSGNTYYNEKFKGRVTITADKSTSTAYMELSSLRSEDTAVYYCARESFSDGYYGYFDYWGQGTLVTVSS
VL: DIVMTQSPDSLAVSLGERATINCKSSQSLLYSTNQKNSLAWYQQKPGQPPKLLIYWASTRESGVPDRFSGSGSGTDFTLTISSLQAEDVAVYYCQQYYRYPLTFGQGTKLEIK
notes: Whole humanized antibody expressed from pKANTEX93
On to B2, for which the “human HB-EGF binding activity relative to KM3966” value in assay [2] was ~0.5 fold of KM3966. Also, the kon in assay [1] was 104000 M⁻¹ s⁻¹.

B3: anti-HB-EGF humanized antibody HV7LV5 (antibody, V domains shown)
VH: QVQLVQSGAEVKKPGASVKLSCKASGYTFRTYGITWVRQAPGQGLEWIGEIFPGSGNTYYNEKFKGRATLTADKSTSTAYMELSSLRSEDTAVYFCARESFSDGYYGYFDYWGQGTLLTVSS
VL: DIVMTQSPDSLAVSVGERVTMNCKSSQSLLYSTNQKNSLAWYQQKPGQSPKLLIYWASTRESGVPDRFSGSGSGTDFTLTISSVQAEDVAVYYCQQYYRYPLTFGQGTKLEIK
notes: as for B1
In the case of B3, the kon in assay [1] was found to be 170000 M⁻¹ s⁻¹.

B4: anti-HB-EGF monoclonal antibody KM3566 (antibody, V domains shown)
VH: QVQLQQSGTELARPGASVKLSCKASGYTFRTYGITWVKQRTGQGLEWIGEIFPGSGNTYYNEKFKGKASLTADKSSSTAYMQLSSLTSEDSAVYFCARESFSDGYYGYFDYWGQGTTLTVSS
VL: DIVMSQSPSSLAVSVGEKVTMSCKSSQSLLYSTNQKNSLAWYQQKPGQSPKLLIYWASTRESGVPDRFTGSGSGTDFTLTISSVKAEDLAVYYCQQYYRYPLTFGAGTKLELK
notes: also called anti-HB-EGF mouse antibody KM3566; monoclonal antibody produced by hybridoma KM3566 (FERM BP-10490)
Take B4: the binding result is on record as “no binding (tested: diluted stepwise from 10 µg/ml)” in assay [3] and “no binding” in the assay with mouse HB-EGF. In addition, the kon in assay [4] came to 270000 M⁻¹ s⁻¹.

B5: anti-HB-EGF chimeric antibody KM3966 (antibody, V domains shown)
VH: QVQLQQSGTELARPGASVKLSCKASGYTFRTYGITWVKQRTGQGLEWIGEIFPGSGNTYYNEKFKGKASLTADKSSSTAYMQLSSLTSEDSAVYFCARESFSDGYYGYFDYWGQGTTLTVSS
VL: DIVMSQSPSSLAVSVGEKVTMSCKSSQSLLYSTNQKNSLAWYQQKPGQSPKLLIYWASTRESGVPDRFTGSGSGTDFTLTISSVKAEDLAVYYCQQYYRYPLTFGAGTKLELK
notes: Human chimeric IgG class antibody made with the vector pKANTEX93 (WO 97/10354); also called human chimeric antibody KM3966; anti-HB-EGF monoclonal antibody KM3966
B5: the kon in assay [4] was 240000 M⁻¹ s⁻¹; in assay [1], 187000 M⁻¹ s⁻¹. In the assay with mouse HB-EGF, the binding result is recorded as “no binding”.

In general, kon refers to a measure of how fast the partners come together.

Source of the values: patent publication US20110034673A1 (Kyowa Kirin, published 2011).
